Data reported in the RNAGym collection of RNA variant scans (doi:10.7554/elife.80360).

B1: Hairpin Ribozyme (parent)
chain: GUCCUCUUUCACGUGCGCGUGAAAGAGAGAAGUGAACCAGAGAAACACACGUUGUGGUAUAUUACCUGGUA

Variants of: B1
Test: self-cleavage, relative activity (ratio to wild type); higher = more cleavage; co-transcriptional

In order of falling self-cleavage:
1. G34U U70G  1.48
2. G34A A35C  1.43
3. U53A U60C  1.31
4. U20A G34U  1.29
5. G17U U52A  1.21
6. G34U G68A  1.17
7. G13U G34U  1.12
8. U7C A28G  1.02
9. G34U C37G  1.01
10. C65A  0.989
11. C6U U52A  0.965
12. G25C A41U  0.931
13. U14C C65A  0.93
14. C12G U52C  0.899
15. G13U G19U  0.895
16. A23U G51U  0.893
17. A28U U60C  0.871
18. G19A U20G  0.786
19. G34U G69C  0.759
20. C6U A24C  0.747
21. U7C U60A  0.737
22. A22G A35C  0.715
23. U9C G19A  0.704
24. A22G A71U  0.702
25. C12A A71U  0.701
26. C12G A22U  0.686
27. G69C U70C  0.685
28. G27A U60C  0.657
29. A28C A41C  0.625
30. G15U A28C  0.619
31. U53A G54U  0.609
32. G51C U60A  0.589
33. U7A U8C  0.559
34. U20C G54A  0.544
35. C18U C38U  0.529
36. C6A G13A  0.494
37. A64U A71C  0.494
38. U9G A23U  0.482
39. C6G G25U  0.475
40. A26G A36C  0.474
41. A11C A64G  0.462
42. A24U A28C  0.449
43. C6A A31G  0.446
44. A26C A31G  0.445
45. U8G G27A  0.43
46. C12A A39U  0.425
47. U5C U9A  0.418
48. C4U A35C  0.418
49. U52G U60A  0.4
50. U14C C37U  0.376
51. U5A U20C  0.358
52. G54U U55A  0.354
53. C4G G17U  0.336
54. C18A U67G  0.329
55. C10A G69A  0.317
56. U52C G68U  0.311
57. U2G G19A  0.311
58. A26G G68A  0.309
59. G34A A39U  0.304
60. C16G A28C  0.289
61. U7A U67G  0.282
62. C18A G68A  0.272
63. A28U U62C  0.272
64. C50U A59U  0.272
65. G42A A44C  0.27
66. C10A C37G  0.266
67. C6U A59G  0.266
68. A35U A61C  0.265
69. U5A U63G  0.264
70. A28C G69C  0.262
71. C10G A61C  0.255
72. C16U A61C  0.254
73. A59U A71U  0.252
74. A41C G68A  0.249
75. G56C U62C  0.244
76. G15A U67C  0.24
77. A24C G56U  0.231
78. A41U A43C  0.231
79. U2A C18A  0.23
80. C4G U60C  0.224
81. A31G G54U  0.223
82. C16G G27C  0.222
83. A30G A43U  0.221
84. G40U A41U  0.221
85. A47C U60A  0.219
86. G29A G51C  0.216
87. A35C A44U  0.216
88. G13C G57A  0.215
89. G51U U63A  0.215
90. U14C C65G  0.214
91. C18A C38G  0.213
92. G40C U52A  0.209
93. A24G U67A  0.204
94. C10U A61G  0.201
95. G17U G57A  0.201
96. C18G U62C  0.2
97. G34A C46A  0.198
98. G40A C50U  0.195
99. C38U A59G  0.194
100. U2C G54U  0.193
101. C4G A39C  0.193
102. U5G A23U  0.192
103. A31U A45C  0.191
104. A59C G69A  0.19
105. G15U U62G  0.189
106. G29U A30G  0.189
107. G54A U62A  0.188
108. A45C C66A  0.187
109. C38A C46U  0.187
110. C6A A61U  0.182
111. C3A A43U  0.179
112. A49C A71G  0.177
113. U7A G42U  0.173
114. U8C C46U  0.172
115. C38G A43G  0.171
116. G29C C50A  0.167
117. C3G A59U  0.164
118. U2C A41G  0.158
119. C4A G69C  0.156
120. U2G C6G  0.155
121. A30U U58G  0.155
122. U8A G25C  0.155
123. U2A A45C  0.154
124. G25A G40U  0.153
125. G42C A47C  0.149
126. C50G A71U  0.148
127. C6G U67G  0.146
128. G15U A44C  0.145
129. U9A C48A  0.144
130. G1U A11G  0.143
131. G27A U67C  0.141
132. G32U G69C  0.136
133. A26C A45G  0.136
134. A31C A64C  0.134
135. G32C G34A  0.132
136. U9C U63A  0.131
137. A26G C38A  0.131
138. G1U  0.13
139. G29C U55C  0.127
140. C38A U67A  0.124
141. G34A C48A  0.122
142. U2A C38G  0.121
143. A64G G69A  0.121
144. C38G A59C  0.12
145. G1U A24U  0.117
146. C4U A47U  0.115
147. A30G G42A  0.113
148. G17U C48U  0.11
149. U2A U55G  0.109
150. G29A C38A  0.108
151. U2G A43U  0.102
152. C12G G32C  0.0993
153. A31C G69U  0.0958
154. U20A C66G  0.0899
155. G25U G32U  0.0897
156. A59C A61C  0.0887
157. A31U U55A  0.0885
158. G25C A45G  0.0878
159. G1U U33G  0.0782
160. A11C C66G  0.0776
161. G13A A45U  0.0732
162. U33A C66A  0.0709
163. A35C U55C  0.0658
164. A41C C46U  0.0492
165. U2C U14A  0.0424
166. G1U U58A  0.0365
167. A47G U53C  0
